Series [1] deals with T1, Thrombin (Homo sapiens) (UniProt P00734+P00734). Kind of series: FP.
Series [2] deals with T1, Thrombin (Homo sapiens). Description: MST. The note with it: Phe at library positions 5 and 3, C12 at position 4, Nap at position 1 (3' end) (unnatural monomers); 2Bind, N=2, 100 nM aptamer, buffer without Triton X; unit given as nmol.

Our source for the Kd values is patent US20230220381.

By Kd is commonly meant the free concentration of one partner at which half of the binding sites on the other are occupied at equilibrium, for simple one-to-one binding. High values mean a looser complex, low ones a tighter complex. In the series with Thrombin (Homo sapiens) [1] (branched DNA-encoded construct with BU, aptamer branch GGTTGGC12GTGGAlkTGGTTTTT (C12 and Alk unnatural phosphodiester monomers), same buffer as TBA1F), “CGTCGAGGCCCGTGCTTACCCGTGACCTTCTTAGGAGGTTGGNGTGGNTGGTTTTTACACGTCACGCCTTTTTTTTT [TBA2F]” displayed a Kd of 89 nM. For GGGTGGPHECTGGPHETGGNAP [Aptamer3], the Kd was found to be 5 nM with Thrombin (Homo sapiens) [1] (Phe at library positions 5 and 3, C12 at position 4, Nap at position 1 (3' end) (unnatural monomers), fluorescence anisotropy with 0.1 mg/mL sheared salmon sperm DNA, N=3, unit given as nmol); 6 nM with Thrombin (Homo sapiens) [1] (Phe at library positions 5 and 3, C12 at position 4, Nap at position 1 (3' end) (unnatural monomers), fluorescence anisotropy, thrombin binding buffer, unit given as nmol); 20 nM with Thrombin (Homo sapiens) [2].

For GGTPTGGPHECTGGTTGGG [Aptamer2], the Kd with Thrombin (Homo sapiens) [1] (Trp at library position 7, Phe at position 5, C12 at position 4 (unnatural monomers), fluorescence anisotropy, unit given as nmol) turned out to be 10 nM; in the series with Thrombin (Homo sapiens) [1] (Trp at library position 7, Phe at position 5, C12 at position 4 (unnatural monomers), with 0.1 mg/mL salmon sperm DNA, N=3, unit given as nmol), 10 nM. GGTTGGPHEGTGGTTGGT [Aptamer1] yielded a Kd with Thrombin (Homo sapiens) [1] (Phe unnatural monomer at library position 5, fluorescence anisotropy, unit given as nmol) of 26 nM. For the sequence “GGTTGGTGTGGTTGGNAP [Aptamer4 of Table 9 (Nap at position 1; Aptamer5 in FIG. 12)]”, in the series with Thrombin (Homo sapiens) [1] (Nap unnatural monomer at library position 1 (3' end), unit given as nmol, Aptamer4/5 naming swapped in FIG. 12, Table 9 sequence used), the Kd came to 24 nM.
